Measured values published in the supplement of paper PMC7877785.
± gives the uncertainty stated by the source.

Assay: self-splicing fitness, log relative to wild type (ln ratio); higher = more splicing; Tetrahymena group I intron in knt gene, E. coli kanamycin selection, DiMSum; sequences stand for … in CUCUCU…GGAGGGAAAAGUUAUCAGGCAUGCACCUGGUAGCUAGUCUUUAAACCAAUAGAUUGCAUCGGUUUAAAAGGCAAGACCGUCAAAUUGCGGGAAAGGGGUCAACAGCCGUUCAGUACCAAGUCUCAGGGGAAACUUUGAGAUGGCCUUGCAAAGGGUAUGGUAAUAAGCUGACGGACAUGGUCCUAACCACGCAGCCAAGUCCUAAGUCAACAGAUCUUCUGUUGAUAUGGAUGCAGUUCACAGACUAAAUGUCGGUCGGGGAAGAUGUAUUCUUCUCAUAAGAUAUAGUCGGACCUCUCCUUAAUGGGAGCUAGCGGAUGAAGUGAUGCAACACUGGAGCCGCUGGGAACUAAUUUGUAUGCGAAAGUAUAUUGAUUAGUUUUGGAGUACUCGUGGUCG
Summary of the method: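 The eight P1ex-region nucleotides of an intron in the knt kanamycin-resistance gene on pET-22b(+) were all randomised and the library put into E. coli BL21(DE3). Six replicate transformations were grown overnight at 37°C or 30°C on LB agar with or without 25 μg/mL kanamycin, together with 100 μg/mL carbenicillin, 50 μM IPTG and 0.2% rhamnose. Colonies were pooled and amplicon-sequenced on an Illumina HiSeq 2500. Fitness from DiMSum is the error-weighted combination of wild-type-normalised replicate fold changes, kanamycin over none.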

Sequence	self-splicing fitness (ln) (30 °C)	self-splicing fitness (ln) (37 °C)
GGGCAGCAAUAUUACGCGAA	-0.567 ± 0.073	0.0161 ± 0.099
GGGCAGCAAUAUUACGCGCG	-0.63 ± 0.13	-0.682 ± 0.14
GGGCAGCAAUAUUACGCGGG	-1.76 ± 0.16	-1.21 ± 0.2
GGGCAGCAAUAUUACGCGUG	-0.165 ± 0.18	-1.87 ± 0.22
GGGCAGCAAUAUUACGGACG	-1.01 ± 0.056	0.591 ± 0.078
GGGCAGCAAUAUUACGGAGC	-2.15 ± 0.19	-1.12 ± 0.2
GGGCAGCAAUAUUACGGCAC	-1.17 ± 0.16	-0.328 ± 0.17
GGGCAGCAAUAUUACGGCGA	-0.562 ± 0.11	-0.245 ± 0.099
GGGCAGCAAUAUUACGGGGG	-3.44 ± 0.41	–
GGGCAGCAAUAUUACGGUGU	-2.02 ± 0.1	-1.21 ± 0.099
GGGCAGCAAUAUUACGUCGU	-0.45 ± 0.11	-0.185 ± 0.1
GGGCAGCAAUAUUACGUUAC	-1.84 ± 0.16	-0.903 ± 0.23
GGGGAGCAAUAUUACGACUG	-0.399 ± 0.45	–
GGGGAGCAAUAUUACGACUU	-1.2 ± 0.16	0.242 ± 0.22
GGGGAGCAAUAUUACGCUUU	-2.18 ± 0.27	–
GGGGAGCAAUAUUACGGAAA	–	-0.21 ± 0.41
GGGGAGCAAUAUUACGGAAU	–	-1.68 ± 0.33
GGGGAGCAAUAUUACGGAGU	-1.01 ± 0.41	–
GGGGAGCAAUAUUACGGUCG	-2.08 ± 0.28	-0.686 ± 0.35
GGGGAGCAAUAUUACGUAAA	-3.12 ± 0.36	-1.18 ± 0.3
GGGGAGCAAUAUUACGUGUC	-3.68 ± 0.33	-2.19 ± 0.18
GGGUAGCAAUAUUACGAAUC	0.0354 ± 0.3	-0.646 ± 0.36
GGGUAGCAAUAUUACGACAA	-0.573 ± 0.24	-0.263 ± 0.21
GGGUAGCAAUAUUACGAGAC	-3.48 ± 0.32	-1.9 ± 0.42
GGGUAGCAAUAUUACGAGAG	-3.56 ± 0.28	-2.26 ± 0.2

Sequence	self-splicing fitness (ln) (30 °C)	self-splicing fitness (ln) (37 °C)
GGGUAGCAAUAUUACGAGUU	-0.948 ± 0.092	-1.38 ± 0.2
GGGUAGCAAUAUUACGAUCG	-0.211 ± 0.16	-0.869 ± 0.22
GGGUAGCAAUAUUACGCAAC	–	-2.43 ± 0.44
GGGUAGCAAUAUUACGCAAU	-1.79 ± 0.31	-1.47 ± 0.39
GGGUAGCAAUAUUACGCCCG	-1.88 ± 0.25	-1.32 ± 0.17
GGGUAGCAAUAUUACGGACA	-0.93 ± 0.093	-0.223 ± 0.097
GGGUAGCAAUAUUACGGCAU	-0.0241 ± 0.076	-0.23 ± 0.096
GGGUAGCAAUAUUACGGGCU	-0.35 ± 0.081	0.282 ± 0.13
GGGUAGCAAUAUUACGGGUG	-4.22 ± 0.36	-2.68 ± 0.22
GGGUAGCAAUAUUACGGUAU	-2.11 ± 0.13	-0.598 ± 0.14
GGGUAGCAAUAUUACGGUGG	-2.55 ± 0.27	-1.61 ± 0.33
GGGUAGCAAUAUUACGUGCA	-0.359 ± 0.12	-0.483 ± 0.14
GGGUAGCAAUAUUACGUUCC	–	-2.09 ± 0.46
GGGUAGCAAUAUUACGUUGC	-3.63 ± 0.33	-0.334 ± 0.22
GGUAAGCAAUAUUACGAAAA	-2.86 ± 0.43	-0.969 ± 0.34
GGUAAGCAAUAUUACGAAGU	-1.93 ± 0.31	-1.78 ± 0.25
GGUAAGCAAUAUUACGACGC	0.697 ± 0.17	0.22 ± 0.21
GGUAAGCAAUAUUACGAUAU	-0.847 ± 0.15	0.242 ± 0.2
GGUAAGCAAUAUUACGAUGC	-0.616 ± 0.13	-0.401 ± 0.16
GGUAAGCAAUAUUACGAUGU	-1.2 ± 0.061	-0.805 ± 0.074
GGUAAGCAAUAUUACGCCAG	-4.42 ± 0.27	-2.13 ± 0.29
GGUAAGCAAUAUUACGCCUA	-0.917 ± 0.088	-0.737 ± 0.091
GGUAAGCAAUAUUACGCCUU	-1.49 ± 0.15	-0.81 ± 0.15
GGUAAGCAAUAUUACGCGCA	-0.159 ± 0.074	-0.401 ± 0.085
GGUAAGCAAUAUUACGCGGG	-3.28 ± 0.17	-2.02 ± 0.2

Sequence	self-splicing fitness (ln) (30 °C)	self-splicing fitness (ln) (37 °C)
GGUAAGCAAUAUUACGCUAC	-2.3 ± 0.4	-2.23 ± 0.37
GGUAAGCAAUAUUACGCUCG	-0.274 ± 0.13	-0.892 ± 0.23
GGUAAGCAAUAUUACGGACU	-1.43 ± 0.17	-0.246 ± 0.2
GGUAAGCAAUAUUACGGAGG	–	-3.58 ± 0.42
GGUAAGCAAUAUUACGGAGU	-3.39 ± 0.22	-1.73 ± 0.18
GGUAAGCAAUAUUACGGCUA	0.109 ± 0.085	-0.0128 ± 0.11
GGUAAGCAAUAUUACGGGGU	–	-2.57 ± 0.25
GGUAAGCAAUAUUACGGGUG	-3.24 ± 0.12	-1.85 ± 0.088
GGUAAGCAAUAUUACGUACC	-3.79 ± 0.44	–
GGUAAGCAAUAUUACGUCAC	-2.85 ± 0.24	-2.04 ± 0.23
GGUAAGCAAUAUUACGUCAG	-3.79 ± 0.34	-2.52 ± 0.39
GGUAAGCAAUAUUACGUGGC	-2.67 ± 0.15	-1.29 ± 0.16
GGUAAGCAAUAUUACGUGUG	-2.8 ± 0.16	-2.61 ± 0.16
GGUCAGCAAUAUUACGAAUC	-0.132 ± 0.14	0.365 ± 0.13
GGUCAGCAAUAUUACGACCC	-2.52 ± 0.27	-2.43 ± 0.41
GGUCAGCAAUAUUACGACUA	0.124 ± 0.092	0.866 ± 0.13
GGUCAGCAAUAUUACGAGCU	-0.647 ± 0.097	-0.497 ± 0.12
GGUCAGCAAUAUUACGAUAU	0.154 ± 0.071	0.391 ± 0.082
GGUCAGCAAUAUUACGCAAU	-0.0569 ± 0.099	0.16 ± 0.12
GGUCAGCAAUAUUACGCCUG	-2.9 ± 0.2	-0.721 ± 0.12
GGUCAGCAAUAUUACGCGCG	-0.298 ± 0.092	-0.546 ± 0.11
GGUCAGCAAUAUUACGCUGA	-3.21 ± 0.44	-1.95 ± 0.32
GGUCAGCAAUAUUACGGAAU	-0.593 ± 0.054	-0.0986 ± 0.069
GGUCAGCAAUAUUACGGUAA	-0.874 ± 0.071	-0.111 ± 0.069
GGUCAGCAAUAUUACGUACA	-0.423 ± 0.087	0.547 ± 0.14

Sequence	self-splicing fitness (ln) (30 °C)	self-splicing fitness (ln) (37 °C)
GGUCAGCAAUAUUACGUCGU	0.302 ± 0.08	0.488 ± 0.082
GGUCAGCAAUAUUACGUGAA	-0.356 ± 0.086	0.381 ± 0.096
GGUCAGCAAUAUUACGUUGU	-1.51 ± 0.057	-0.47 ± 0.068
GGUGAGCAAUAUUACGAAUA	-2.09 ± 0.33	–
GGUGAGCAAUAUUACGAGGG	-3.16 ± 0.26	-2.43 ± 0.24
GGUGAGCAAUAUUACGCAGC	–	-1.93 ± 0.34
GGUGAGCAAUAUUACGCGUG	-1.22 ± 0.16	-1.52 ± 0.21
GGUGAGCAAUAUUACGGAAC	-1.27 ± 0.21	-0.837 ± 0.24
GGUGAGCAAUAUUACGGCUC	-1.94 ± 0.24	-0.104 ± 0.3
GGUGAGCAAUAUUACGGGAG	-1.79 ± 0.28	-2.68 ± 0.48
GGUGAGCAAUAUUACGGGGG	-3.41 ± 0.43	–
GGUGAGCAAUAUUACGGGGU	-3.31 ± 0.17	-2.94 ± 0.26
GGUGAGCAAUAUUACGGGUG	-3.18 ± 0.26	-2.7 ± 0.27
GGUGAGCAAUAUUACGGGUU	–	-2.59 ± 0.36
GGUGAGCAAUAUUACGGUCC	-1.66 ± 0.13	-0.523 ± 0.15
GGUGAGCAAUAUUACGUACU	-1.89 ± 0.14	-1.75 ± 0.17
GGUGAGCAAUAUUACGUAGA	-3.01 ± 0.33	-2.19 ± 0.29
GGUGAGCAAUAUUACGUAGG	-3.15 ± 0.27	-2.07 ± 0.32
GGUGAGCAAUAUUACGUAUC	-1.77 ± 0.1	-0.807 ± 0.12
GGUGAGCAAUAUUACGUGCC	-3.67 ± 0.33	-2.67 ± 0.38
GGUGAGCAAUAUUACGUGCU	-1.66 ± 0.18	-1.74 ± 0.37
GGUUAGCAAUAUUACGAAAC	–	-1.68 ± 0.41
GGUUAGCAAUAUUACGAAGU	-0.268 ± 0.2	-0.745 ± 0.18
GGUUAGCAAUAUUACGACAC	0.342 ± 0.2	-0.137 ± 0.24
GGUUAGCAAUAUUACGACCA	-1.69 ± 0.32	-0.631 ± 0.3
